Reference: publication PMC7549839, “Posttranslational insertion of small membrane proteins by the bacterial signal recognition particle” (PLoS Biology, 2020)

B1: His-tagged YohP (YohPHis) (natural protein, E. coli, UniProt C1P609 1-27, looked up)
chain: MKIILWAVLIIFLIGLLVVTGVFKMIF
notes: YohP, small membrane protein of E. coli, 27 amino acids; also called YohP_(His6); source: E. coli, expressed in vivo from pBad24 (arabinose) or pET19b (IPTG); whole cells TCA precipitated or cell fractions (INV); not shown: His6, C-terminal, kept
B2: YohP (nontagged) (natural protein, E. coli, UniProt C1P609 1-27, looked up)
chain: MKIILWAVLIIFLIGLLVVTGVFKMIF
notes: YohP, small membrane protein of E. coli, 27 amino acids; also called nontagged YohP; source: E. coli C43(DE3) with pET19b-YohP, expressed in vivo, pulse-labelled with 35S methionine/cysteine; whole cells or cell fractions

Assays:
[1] = molecular target: the molecule itself; assay: SDS-resistant dimer on SDS-PAGE; YohPHis expressed in vivo; whole cells or cell fractions (INV), Tricine-SDS-PAGE, western blot with anti-His antibodies
[2] = molecular target: the molecule itself; assay: SDS-resistant dimer on SDS-PAGE; in vivo expression, 35S pulse-chase labelling with rifampicin; whole cells or fractions TCA precipitated, Tricine-SDS-PAGE, autoradiography

| Protein | stoichiometry N [1] | stoichiometry N [2] |
| --- | --- | --- |
| B1 | 2 | – |
| B2 | – | 2 |
